Assays:
[1] = target: the molecule itself; test: glycerol density gradient centrifugation
cryo-EM structure = target: the molecule itself; test: cryo-EM structure

| Protein | binding result [1] | binding result (cryo-EM structure) |
| --- | --- | --- |
| erlin2 with a C-terminal Flag tag, overexpressed alone (natural protein, human, UniProt O94905 1-339, looked up) MAQLGAVVAVASSFFCASLFSAVHKIEEGHIGVYYRGGALLTSTSGPGFHLMLPFITSYKSVQTTLQTDEVKNVPCGTSGGVMIYFDRIEVVNFLVPNAVYDIVKNYTADYDKALIFNKIHHELNQFCSVHTLQEVYIELFDQIDENLKLALQQDLTSMAPGLVIQAVRVTKPNIPEAIRRNYELMESEKTKLLIAAQKQKVVEKEAETERKKALIEAEKVAQVAEITYGQKVMEKETEKKISEIEDAAFLAREKAKADAECYTAMKIAEANKLKLTPEYLQLMKYKAIASNSKIYFGKDIPNMFMDSAGSVSKQFEGLADKLSFGLEDEPLETATKEN | binds |  |
| erlin1 with a C-terminal Flag tag, overexpressed alone (natural protein, human, UniProt O75477 1-348, looked up) MNMTQARVLVAAVVGLVAVLLYASIHKIEEGHLAVYYRGGALLTSPSGPGYHIMLPFITTFRSVQTTLQTDEVKNVPCGTSGGVMIYIDRIEVVNMLAPYAVFDIVRNYTADYDKTLIFNKIHHELNQFCSAHTLQEVYIELFDQIDENLKQALQKDLNLMAPGLTIQAVRVTKPKIPEAIRRNFELMEAEKTKLLIAAQKQKVVEKEAETERKKAVIEAEKIAQVAKIRFQQKVMEKETEKRISEIEDAAFLAREKAKADAEYYAAHKYATSNKHKLTPEYLELKKYQAIASNSKIYFGSNIPNMFVDSSCALKYSDIRTGRESSLPSKEALEPSGENVIQNKESTG | binds |  |
| erlin1 fused with a twin-Strep tag, co-expressed with erlin2 through a P2A sequence (natural protein, human, UniProt O75477 1-348, looked up, N108 glycosylated (seen in the density map); intramolecular disulfide bond C78-C130) MNMTQARVLVAAVVGLVAVLLYASIHKIEEGHLAVYYRGGALLTSPSGPGYHIMLPFITTFRSVQTTLQTDEVKNVPCGTSGGVMIYIDRIEVVNMLAPYAVFDIVRNYTADYDKTLIFNKIHHELNQFCSAHTLQEVYIELFDQIDENLKQALQKDLNLMAPGLTIQAVRVTKPKIPEAIRRNFELMEAEKTKLLIAAQKQKVVEKEAETERKKAVIEAEKIAQVAKIRFQQKVMEKETEKRISEIEDAAFLAREKAKADAEYYAAHKYATSNKHKLTPEYLELKKYQAIASNSKIYFGSNIPNMFVDSSCALKYSDIRTGRESSLPSKEALEPSGENVIQNKESTG |  | binds |
